tested on: Escherichia coli TOP10; assay: shrunken log2 fold change of peptide-encoding DNA abundance (4.5 h post-induction vs induction); higher = less antimicrobial activity (less host growth inhibition); settings: time post-induction: 4.5 h; library: site-saturation at positions 5, 18, 19, 20
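Also: peptides expressed intracellularly from a pBAD plasmid library in pooled LB shake-flask culture, induced with 0.3% L-arabinose, DNA abundance read by NGS, three biological replicates, DESeq2 with apeglm shrinkage.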

Sequence | shrunken log2 fold change
RRIRCRPPRLPRPRPRPWQSPRP | -0.127
RRIRNRPPRLPRPRPRPTKWPRP | -0.2
RRIRIRPPRLPRPRPRPEVVPRP | 0.00224
RRIRLRPPRLPRPRPRPFAAPRP | 0.281
RRIRERPPRLPRPRPRPVFPPRP | 0.242
RRIRQRPPRLPRPRPRPPMGPRP | 0.187
RRIRWRPPRLPRPRPRPIQWPRP | 0.25
RRIRYRPPRLPRPRPRPLEYPRP | -0.443
RRIRSRPPRLPRPRPRPTLFPRP | 0.206
RRIRPRPPRLPRPRPRPQLKPRP | 0.202
RRIRDRPPRLPRPRPRPIFAPRP | 0.142
RRIRWRPPRLPRPRPRPLLSPRP | 0.148
RRIRPRPPRLPRPRPRPRYMPRP | -0.213
RRIRYRPPRLPRPRPRPDPAPRP | -0.164
RRIRCRPPRLPRPRPRPSTYPRP | -0.768
RRIRVRPPRLPRPRPRPYPAPRP | -0.715
RRIRVRPPRLPRPRPRPIMRPRP | 0.0562
RRIRERPPRLPRPRPRPKGEPRP | 0.0173
RRIRFRPPRLPRPRPRPKRSPRP | 1.12
RRIRMRPPRLPRPRPRPNNHPRP | -0.178
RRIRTRPPRLPRPRPRPPWHPRP | 0.118
RRIRPRPPRLPRPRPRPHRFPRP | 0.645
RRIRTRPPRLPRPRPRPNWKPRP | -0.0427
RRIRLRPPRLPRPRPRPECYPRP | -0.235
RRIRWRPPRLPRPRPRPMMWPRP | 0.0342

Sequence | shrunken log2 fold change
RRIRCRPPRLPRPRPRPIEVPRP | -0.0598
RRIRSRPPRLPRPRPRPTRIPRP | -0.0163
RRIRKRPPRLPRPRPRPCPSPRP | -0.0812
RRIRMRPPRLPRPRPRPPVMPRP | 0.616
RRIRRRPPRLPRPRPRPYNHPRP | -0.8
RRIRERPPRLPRPRPRPFCSPRP | -0.204
RRIRARPPRLPRPRPRPNTVPRP | 0.0514
RRIRRRPPRLPRPRPRPSVNPRP | -0.308
RRIRCRPPRLPRPRPRPNGCPRP | -0.0116
RRIRNRPPRLPRPRPRPCDVPRP | 0.0235
RRIRGRPPRLPRPRPRPAQWPRP | 0.933
RRIRWRPPRLPRPRPRPYLSPRP | -0.242
RRIRMRPPRLPRPRPRPNNPPRP | 0.395
RRIRVRPPRLPRPRPRPMASPRP | -0.01
RRIRFRPPRLPRPRPRPSQTPRP | -0.304
RRIRFRPPRLPRPRPRPGGQPRP | 0.0786
RRIRTRPPRLPRPRPRPENVPRP | -0.0181
RRIRWRPPRLPRPRPRPTYFPRP | -0.359
RRIRWRPPRLPRPRPRPRDCPRP | 0.226
RRIRPRPPRLPRPRPRPRDLPRP | 0.172
RRIRFRPPRLPRPRPRPSPVPRP | -0.00168
RRIRYRPPRLPRPRPRPYYCPRP | 0.00489
RRIRWRPPRLPRPRPRPPQCPRP | 0.292
RRIRDRPPRLPRPRPRPQYEPRP | -0.025
RRIRIRPPRLPRPRPRPAATPRP | 0.0455

Sequence | shrunken log2 fold change
RRIRRRPPRLPRPRPRPEITPRP | 0.0455
RRIRDRPPRLPRPRPRPRKYPRP | -0.283
RRIRPRPPRLPRPRPRPSHKPRP | -0.0374
RRIRCRPPRLPRPRPRPWDAPRP | -0.758
RRIRVRPPRLPRPRPRPDTAPRP | -0.164
RRIRHRPPRLPRPRPRPYFNPRP | -0.882
RRIRNRPPRLPRPRPRPWWSPRP | 0.0428
RRIRQRPPRLPRPRPRPKWSPRP | 0.0364
RRIRPRPPRLPRPRPRPEQDPRP | 0.0894
RRIRRRPPRLPRPRPRPPETPRP | 0.831
RRIRARPPRLPRPRPRPMKDPRP | 0.0565
RRIRMRPPRLPRPRPRPIVCPRP | -0.0438
RRIRDRPPRLPRPRPRPSAMPRP | 0.36
RRIRTRPPRLPRPRPRPRMYPRP | 0.0541
RRIRVRPPRLPRPRPRPWRWPRP | 0.48
RRIRNRPPRLPRPRPRPASDPRP | 0.278
RRIRPRPPRLPRPRPRPPMTPRP | 0.0831
RRIRMRPPRLPRPRPRPCHVPRP | -0.0132
RRIRQRPPRLPRPRPRPNSLPRP | -0.489
RRIRQRPPRLPRPRPRPSVKPRP | -0.0362
RRIRIRPPRLPRPRPRPMTLPRP | 0.0505
RRIRSRPPRLPRPRPRPHYYPRP | -0.581
RRIRLRPPRLPRPRPRPTFNPRP | -0.289
RRIRHRPPRLPRPRPRPECHPRP | -0.303
RRIRVRPPRLPRPRPRPWGQPRP | -0.191

Sequence | shrunken log2 fold change
RRIRPRPPRLPRPRPRPDNAPRP | 0.0303
RRIRPRPPRLPRPRPRPPWKPRP | 0.416
RRIRCRPPRLPRPRPRPIFLPRP | -0.257
RRIRDRPPRLPRPRPRPNSVPRP | -0.0426
RRIRIRPPRLPRPRPRPQIMPRP | -1.16
RRIRNRPPRLPRPRPRPFLSPRP | -0.246
RRIRTRPPRLPRPRPRPLSNPRP | 0.012
RRIRARPPRLPRPRPRPWEVPRP | 0.205
RRIRIRPPRLPRPRPRPAWSPRP | -0.191
RRIRERPPRLPRPRPRPGWHPRP | 0.027
RRIRWRPPRLPRPRPRPWIVPRP | -0.337
RRIRCRPPRLPRPRPRPYNHPRP | -0.416
RRIRNRPPRLPRPRPRPTKAPRP | -0.00132
RRIRSRPPRLPRPRPRPLSHPRP | -0.462
RRIRIRPPRLPRPRPRPPQLPRP | -0.122
RRIRERPPRLPRPRPRPWTTPRP | -0.0139
RRIRNRPPRLPRPRPRPVFDPRP | -0.152
RRIRQRPPRLPRPRPRPAKWPRP | -0.0192
RRIRWRPPRLPRPRPRPDWVPRP | 0.253
RRIRRRPPRLPRPRPRPLFQPRP | 0.246
RRIRWRPPRLPRPRPRPHKTPRP | 0.175
RRIRMRPPRLPRPRPRPDQWPRP | 0.312
RRIRSRPPRLPRPRPRPEWRPRP | 0.478
RRIRWRPPRLPRPRPRPESVPRP | 0.192
RRIRARPPRLPRPRPRPVLPPRP | 0.286

Sequence | shrunken log2 fold change
RRIRVRPPRLPRPRPRPRVRPRP | 0.363
RRIRCRPPRLPRPRPRPMYLPRP | -0.464
RRIRIRPPRLPRPRPRPQTWPRP | -0.169
RRIRGRPPRLPRPRPRPAQGPRP | 0.313
RRIRARPPRLPRPRPRPIQHPRP | -0.132
RRIRRRPPRLPRPRPRPYHYPRP | -0.717
RRIRVRPPRLPRPRPRPQIRPRP | -0.305
RRIRARPPRLPRPRPRPCKMPRP | 0.145
RRIRIRPPRLPRPRPRPLYDPRP | -1.02
RRIRRRPPRLPRPRPRPDVMPRP | 0.195
RRIRARPPRLPRPRPRPVFHPRP | -0.253
RRIRKRPPRLPRPRPRPWHHPRP | -0.197
RRIRWRPPRLPRPRPRPDVFPRP | 0.019
RRIRTRPPRLPRPRPRPNSWPRP | -0.413
RRIRQRPPRLPRPRPRPQLLPRP | -0.00691
RRIRRRPPRLPRPRPRPKGLPRP | 0.238
RRIRERPPRLPRPRPRPMSRPRP | -0.00149
RRIRHRPPRLPRPRPRPIPTPRP | -0.218
RRIRTRPPRLPRPRPRPQQLPRP | 1.75
RRIRSRPPRLPRPRPRPNITPRP | -0.582
RRIRRRPPRLPRPRPRPGIHPRP | 0.252
RRIRMRPPRLPRPRPRPTCQPRP | -0.049
RRIRERPPRLPRPRPRPHDAPRP | -0.437
RRIRMRPPRLPRPRPRPWHYPRP | -0.327
RRIRQRPPRLPRPRPRPRFVPRP | 0.165

Sequence | shrunken log2 fold change
RRIRCRPPRLPRPRPRPNFKPRP | -0.21
RRIRLRPPRLPRPRPRPREGPRP | 0.966
RRIRLRPPRLPRPRPRPYVQPRP | -0.144
RRIRDRPPRLPRPRPRPHPDPRP | -0.116
RRIRVRPPRLPRPRPRPPASPRP | 0.398
RRIRSRPPRLPRPRPRPGYKPRP | -0.084
RRIRLRPPRLPRPRPRPTFCPRP | 0.0876
RRIRSRPPRLPRPRPRPCVQPRP | -0.0792
RRIRRRPPRLPRPRPRPIGIPRP | -0.088
RRIRRRPPRLPRPRPRPMHMPRP | 0.121
RRIRWRPPRLPRPRPRPEMQPRP | 1.12
RRIRDRPPRLPRPRPRPWFIPRP | -0.157
RRIRIRPPRLPRPRPRPCEMPRP | 0.0583
RRIRLRPPRLPRPRPRPIETPRP | -0.0258
RRIRQRPPRLPRPRPRPMLWPRP | -0.00459
RRIRNRPPRLPRPRPRPKRIPRP | -0.107
RRIRVRPPRLPRPRPRPDSKPRP | -0.34
RRIRPRPPRLPRPRPRPRGFPRP | 0.341
RRIRGRPPRLPRPRPRPYIDPRP | 0.093
RRIRQRPPRLPRPRPRPFNIPRP | 0.0348
RRIRWRPPRLPRPRPRPSTRPRP | 0.00128
RRIRQRPPRLPRPRPRPSWAPRP | -0.0374
RRIRQRPPRLPRPRPRPMTRPRP | 0.0107
RRIRARPPRLPRPRPRPWCGPRP | 0.0572
RRIRARPPRLPRPRPRPPAYPRP | 0.3
